PMC7452315, “Alternative Splicing of a Receptor Intracellular Domain Yields Different Ectodomain Conformations, Enabling Isoform-Selective Functional Ligands” (iScience, 2020)

What was measured:
TrkC ECD (Homo sapiens) = TrkC ECD (Homo sapiens) (UniProt Q16288); conditions: cited from earlier work
[1] = molecular target: truncated TrkC.T1 receptor; assay: co-IP; HEK293 lysates expressing TrkC.T1, TrkC-FL or TrkC-Δ-ICD; immunoprecipitated with a pan-TrkC antibody; reducing and non-reducing SDS-PAGE; blotted with two anti-PDI mAbs or anti-pan-TrkC
Sequence of truncated TrkC.T1 receptor (Q16288 32-839): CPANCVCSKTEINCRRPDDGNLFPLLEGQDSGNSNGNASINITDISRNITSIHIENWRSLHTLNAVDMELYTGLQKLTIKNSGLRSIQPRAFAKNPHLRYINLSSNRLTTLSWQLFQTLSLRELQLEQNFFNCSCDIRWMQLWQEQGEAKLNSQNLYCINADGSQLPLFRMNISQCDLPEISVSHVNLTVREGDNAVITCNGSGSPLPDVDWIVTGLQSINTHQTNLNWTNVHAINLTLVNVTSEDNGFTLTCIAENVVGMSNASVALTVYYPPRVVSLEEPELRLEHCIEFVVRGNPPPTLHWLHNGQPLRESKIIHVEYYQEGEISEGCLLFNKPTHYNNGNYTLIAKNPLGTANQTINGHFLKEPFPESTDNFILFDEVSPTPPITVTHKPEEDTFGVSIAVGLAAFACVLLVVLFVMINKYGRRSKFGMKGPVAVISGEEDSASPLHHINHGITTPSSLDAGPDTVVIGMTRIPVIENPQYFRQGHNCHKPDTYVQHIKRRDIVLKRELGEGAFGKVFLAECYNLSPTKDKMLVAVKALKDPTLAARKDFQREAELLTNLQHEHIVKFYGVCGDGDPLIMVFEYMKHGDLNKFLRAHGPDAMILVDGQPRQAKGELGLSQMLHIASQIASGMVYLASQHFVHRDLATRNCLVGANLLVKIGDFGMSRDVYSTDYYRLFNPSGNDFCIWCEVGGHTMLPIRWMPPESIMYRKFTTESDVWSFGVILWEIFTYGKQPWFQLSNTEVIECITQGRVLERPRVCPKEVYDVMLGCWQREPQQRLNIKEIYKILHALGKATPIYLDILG

[2] = molecular target: TrkC-FL D5 (Homo sapiens) (UniProt Q16288); conditions: cited from earlier work
Sequence of TrkC-FL D5 (Homo sapiens) (Q16288 300-413): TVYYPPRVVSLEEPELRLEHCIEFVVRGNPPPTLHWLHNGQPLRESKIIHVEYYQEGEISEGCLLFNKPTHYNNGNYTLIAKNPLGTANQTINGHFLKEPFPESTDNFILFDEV

[3] = molecular target: T1, full-length TrkC (TrkC-FL) (UniProt Q16288 32-839); assay: cell-based or functional assay
T1 sequence (Q16288 32-839): as the sequence (Q16288 32-839) above

[4] = molecular target: T1, full-length TrkC (TrkC-FL); assay: flow cytometry on cells; quantitative flow cytometry on live, non-permeabilised cells stably transfected with TrkC-FL or TrkC.T1; ligand at saturating concentration; read-out is fold-increase in mean fluorescence intensity over controls; NT-3-biotin detected with avidin-fluorescein, PTP-sigma with anti-human secondary; conditions: one partner purified
[5] = molecular target: truncated TrkC.T1 receptor; assay: as above
[6] = molecular target: T1, full-length TrkC (TrkC-FL); assay: cell-based or functional assay; remark: listed apart in the source

Sequence of TrkC ECD (Homo sapiens) (Q16288 32-429): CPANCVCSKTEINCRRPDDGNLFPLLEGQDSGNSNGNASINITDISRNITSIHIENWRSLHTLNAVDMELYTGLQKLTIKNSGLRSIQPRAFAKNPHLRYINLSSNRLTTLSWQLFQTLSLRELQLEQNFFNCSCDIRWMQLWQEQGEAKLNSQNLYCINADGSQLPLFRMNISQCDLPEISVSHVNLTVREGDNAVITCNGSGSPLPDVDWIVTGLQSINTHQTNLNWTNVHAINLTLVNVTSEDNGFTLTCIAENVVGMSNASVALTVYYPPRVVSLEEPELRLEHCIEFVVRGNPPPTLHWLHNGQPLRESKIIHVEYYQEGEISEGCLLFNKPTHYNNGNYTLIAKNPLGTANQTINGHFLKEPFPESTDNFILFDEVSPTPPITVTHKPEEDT

Q: Which Kd (TrkC ECD (Homo sapiens)) does the source give for PTP-sigma (from UniProt Q13332) here?
A: Its Kd is 9.3 nM.

Q: Which fold associated PDI (PDI/TrkC ratio) against TrkC-FL and TrkC-Δ-ICD [1] does the source give for “Protein Disulfide Isomerase (PDI) (from UniProt P07237 18-508) (enzyme)” here?
A: The fold associated PDI (PDI/TrkC ratio) against TrkC-FL and TrkC-Δ-ICD was 4 to 6 fold.

Q: Which Kd [2] does the source give for NT-3 (from UniProt P20783) here?
A: The Kd was 0.05 nM.

B1: ectodomain of PTP-sigma (domain or fragment, UniProt Q13332 30-1282, looked up)
chain: EEPPRFIKEPKDQIGVSGGVASFVCQATGDPKPRVTWNKKGKKVNSQRFETIEFDESAGAVLRIQPLRTPRDENVYECVAQNSVGEITVHAKLTVLREDQLPSGFPNIDMGPQLKVVERTRTATMLCAASGNPDPEITWFKDFLPVDPSASNGRIKQLRSETFESTPIRGALQIESSEETDQGKYECVATNSAGVRYSSPANLYVRELREVRRVAPRFSILPMSHEIMPGGNVNITCVAVGSPMPYVKWMQGAEDLTPEDDMPVGRNVLELTDVKDSANYTCVAMSSLGVIEAVAQITVKSLPKAPGTPMVTENTATSITITWDSGNPDPVSYYVIEYKSKSQDGPYQIKEDITTTRYSIGGLSPNSEYEIWVSAVNSIGQGPPSESVVTRTGEQAPASAPRNVQARMLSATTMIVQWEEPVEPNGLIRGYRVYYTMEPEHPVGNWQKHNVDDSLLTTVGSLLEDETYTVRVLAFTSVGDGPLSDPIQVKTQQGVPGQPMNLRAEARSETSITLSWSPPRQESIIKYELLFREGDHGREVGRTFDPTTSYVVEDLKPNTEYAFRLAARSPQGLGAFTPVVRQRTLQSKPSAPPQDVKCVSVRSTAILVSWRPPPPETHNGALVGYSVRYRPLGSEDPEPKEVNGIPPTTTQILLEALEKWTQYRITTVAHTEVGPGPESSPVVVRTDEDVPSAPPRKVEAEALNATAIRVLWRSPAPGRQHGQIRGYQVHYVRMEGAEARGPPRIKDVMLADAQWETDDTAEYEMVITNLQPETAYSITVAAYTMKGDGARSKPKVVVTKGAVLGRPTLSVQQTPEGSLLARWEPPAGTAEDQVLGYRLQFGREDSTPLATLEFPPSEDRYTASGVHKGATYVFRLAARSRGGLGEEAAEVLSIPEDTPRGHPQILEAAGNASAGTVLLRWLPPVPAERNGAIVKYTVAVREAGALGPARETELPAAAEPGAENALTLQGLKPDTAYDLQVRAHTRRGPGPFSPPVRYRTFLRDQVSPKNFKVKMIMKTSVLLSWEFPDNYNSPTPYKIQYNGLTLDVDGRTTKKLITHLKPHTFYNFVLTNRGSSLGGLQQTVTAWTAFNLLNGKPSVAPKPDADGFIMVYLPDGQSPVPVQSYFIVMVPLRKSRGGQFLTPLGSPEDMDLEELIQDISRLQRRSLRHSRQLEVPRPYIAARFSVLPPTFHPGDQKQYGGFDNRGLEPGHRYVLFVLAVLQKSEPTFAASPFSDPFQLDNPDPQPIVDGEEG
notes: receptor-type tyrosine-protein phosphatase sigma, ectodomain; Probably a human Fc fusion, since it was detected with an anti-human secondary; also called PTP-sigma ectodomain; not shown: Fc (human)
Q: For B1, which “cell survival (MTT) of TrkC-FL-expressing cells in serum-free media, efficacy relative to 2 nM NT-3 (100%)” value [3] is on record?
A: The value was 105 % of 2 nM NT-3.

Q: What about the “fold-increase in ligand binding over controls (mean fluorescence intensity)” value [4] of the same molecule?
A: Its value is 5 fold.

Q: What about the fold-increase in ligand binding over controls (mean fluorescence intensity) [5] of the same molecule?
A: Its fold-increase in ligand binding over controls (mean fluorescence intensity) is 3.7 fold.

Q: And the “EC50 of bioactivity from dose-response curves (cell survival via TrkC-FL)” value [6]?
A: The value was 8 nM.

B2: NT-3 (ligand, UniProt P20783 139-257, looked up)
chain: YAEHKSHRGEYSVCDSESLWVTDKSSAIDIRGHQVTVLGEIKTGNSPVKQYFYETRCKEARPVKNGCRGIDDKHWNSQCKTSQTYVRALTSENNKLVGWRWIRIDTSCVCALSRKIGRT
modifications: biotin (NT-3-biotin in the flow cytometry binding assay)
notes: neurotrophin-3, soluble growth factor; also called NT-3-biotin
Q: For B2, which “fold-increase in ligand binding over controls (mean fluorescence intensity)” value [4] is on record?
A: Its value is 9 fold.

Q: And the fold-increase in ligand binding over controls (mean fluorescence intensity) [5]?
A: Its fold-increase in ligand binding over controls (mean fluorescence intensity) is 7 fold.

Q: And the “EC50 of bioactivity from dose-response curves (cell survival via TrkC-FL)” value [6]?
A: Its value is 0.2 nM.
